Substitutions are numbered along the chain they refer to. Numbered stars: 1 amine (or outer) side, 2 acyl side, 3 side chain; on linkers, the order of the positions; unused ones are H or OH. Square brackets hold non-standard residues; d marks the D form. Side chains are listed from the residue outwards. Ends that are not written are not given here. * marks the point of attachment. C20 diacid = O=C(O)CCCCCCCCCCCCCCCCCCC(=O)*; C18 diacid = O=C(O)CCCCCCCCCCCCCCCCC(=O)*; γGlu = O=C(O)[C@H](CCC(=O)[*:2])N[*:1]; αMeL = CC(C)C[C@](C)(N)C(=O)O; αMeK = C[C@](N)(CCCCN)C(=O)O; AEEA = NCCOCCOCC(=O)O; Aib = CC(C)(N)C(=O)O
T1: human GIP receptor (human, UniProt P48546 22-466)
T1 construct: whole, on cells; also called hGIPR; hGIP-R
T1 sequence (looked up): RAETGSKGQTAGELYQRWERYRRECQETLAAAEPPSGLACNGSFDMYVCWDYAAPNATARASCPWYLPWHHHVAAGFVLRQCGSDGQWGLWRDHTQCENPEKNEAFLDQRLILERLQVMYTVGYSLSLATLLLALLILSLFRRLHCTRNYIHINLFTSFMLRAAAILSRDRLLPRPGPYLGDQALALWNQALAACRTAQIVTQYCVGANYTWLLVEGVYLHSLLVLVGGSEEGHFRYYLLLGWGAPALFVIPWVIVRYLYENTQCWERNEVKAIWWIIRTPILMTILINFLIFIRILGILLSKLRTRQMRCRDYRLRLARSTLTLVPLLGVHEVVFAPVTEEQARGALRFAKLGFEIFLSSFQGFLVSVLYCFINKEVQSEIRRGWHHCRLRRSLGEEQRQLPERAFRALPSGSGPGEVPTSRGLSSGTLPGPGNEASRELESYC

T2: human GIP receptor (human, UniProt P48546 22-466)
T2 construct: whole, on cells; Used as crude membranes of stably transfected CHO cells; also called hGIPR
T2 sequence (looked up): T1 sequence (looked up)

B1: Example 234 (peptide)
peptide: YXEGTXTSDXSILLDXKAQXEFIXYLIEGGPSSGAPPPS
modifications: Aib2; αMeF(2F)6; 4Pal10; Dab16; K17((2-[2-(2-Amino-ethoxy)-ethoxy]-acetyl)2-(γ-Glu)-CO-(CH2)16-CO2H); Aib20; D-Glu24; C-terminal NH2
B2: Example 247 (peptide)
peptide: B1 peptide with X10Y, L13X
modifications: Aib2; αMeF(2F)6; Aib13; Orn16; K17((2-[2-(2-Amino-ethoxy)-ethoxy]-acetyl)2-(γ-Glu)-CO-(CH2)16-CO2H); Aib20; D-Glu24; C-terminal NH2
B3: Example 235 (peptide)
peptide: B1 peptide with L13X
modifications: Aib2; αMeF6; 4Pal10; αMeL13; Dab16; K17((2-[2-(2-Amino-ethoxy)-ethoxy]-acetyl)2-(γ-Glu)-CO-(CH2)16-CO2H); Aib20; D-Glu24; C-terminal NH2
B4: Example 246 (peptide)
peptide: B1 peptide with X10A, L13X, E21A, Y25X
modifications: Aib2; αMeF(2F)6; αMeL13; Orn16; K17((2-[2-(2-Amino-ethoxy)-ethoxy]-acetyl)2-(γ-Glu)-CO-(CH2)16-CO2H); Aib20; D-Glu24; αMeY25; C-terminal NH2
B5: Example 237 (peptide)
peptide: B1 peptide with X10A, L13X, Y25X
modifications: Aib2; αMeF(2F)6; αMeL13; Orn16; K17((2-[2-(2-Amino-ethoxy)-ethoxy]-acetyl)2-(γ-Glu)-CO-(CH2)16-CO2H); Aib20; D-Glu24; αMeY25; C-terminal NH2
B6: Example 22 (peptide)
peptide: Y[Aib]EGTFTSDYSI[αMeL]LDEK([AEEA-AEEA-γGlu-C20 diacid])AQ[αMeK]AFIEYLLE[Aib]GPSSGAPPPS-NH2
modifications: N-terminus assumed
SMILES: CC[C@H](C)[C@H](NC(=O)[C@H](Cc1ccccc1)NC(=O)[C@H](C)NC(=O)[C@](C)(CCCCN)NC(=O)[C@H](CCC(N)=O)NC(=O)[C@H](C)NC(=O)[C@H](CCCCNC(=O)COCCOCCNC(=O)COCCOCCNC(=O)CC[C@H](NC(=O)CCCCCCCCCCCCCCCCCCC(=O)O)C(=O)O)NC(=O)[C@H](CCC(=O)O)NC(=O)[C@H](CC(=O)O)NC(=O)[C@H](CC(C)C)NC(=O)[C@](C)(CC(C)C)NC(=O)[C@@H](NC(=O)[C@H](CO)NC(=O)[C@H](Cc1ccc(O)cc1)NC(=O)[C@H](CC(=O)O)NC(=O)[C@H](CO)NC(=O)[C@@H](NC(=O)[C@H](Cc1ccccc1)NC(=O)[C@@H](NC(=O)CNC(=O)[C@H](CCC(=O)O)NC(=O)C(C)(C)NC(=O)[C@@H](N)Cc1ccc(O)cc1)[C@@H](C)O)[C@@H](C)O)[C@@H](C)CC)C(=O)N[C@@H](CCC(=O)O)C(=O)N[C@@H](Cc1ccc(O)cc1)C(=O)N[C@@H](CC(C)C)C(=O)N[C@@H](CC(C)C)C(=O)N[C@@H](CCC(=O)O)C(=O)NC(C)(C)C(=O)NCC(=O)N1CCC[C@H]1C(=O)N[C@@H](CO)C(=O)N[C@@H](CO)C(=O)NCC(=O)N[C@@H](C)C(=O)N1CCC[C@H]1C(=O)N1CCC[C@H]1C(=O)N1CCC[C@H]1C(=O)N[C@@H](CO)C(N)=O
B7: Example 268 (peptide)
peptide: Y[Aib]EGTFTSDYSILLDEK([AEEA-AEEA-γGlu-C18 diacid])AQ[Aib]AFIEYLIEGGPSSG-NH2
modifications: N-terminus assumed
SMILES: CC[C@H](C)[C@H](NC(=O)[C@H](CC(C)C)NC(=O)[C@H](Cc1ccc(O)cc1)NC(=O)[C@H](CCC(=O)O)NC(=O)[C@@H](NC(=O)[C@H](Cc1ccccc1)NC(=O)[C@H](C)NC(=O)C(C)(C)NC(=O)[C@H](CCC(N)=O)NC(=O)[C@H](C)NC(=O)[C@H](CCCCNC(=O)COCCOCCNC(=O)COCCOCCNC(=O)CC[C@H](NC(=O)CCCCCCCCCCCCCCCCC(=O)O)C(=O)O)NC(=O)[C@H](CCC(=O)O)NC(=O)[C@H](CC(=O)O)NC(=O)[C@H](CC(C)C)NC(=O)[C@H](CC(C)C)NC(=O)[C@@H](NC(=O)[C@H](CO)NC(=O)[C@H](Cc1ccc(O)cc1)NC(=O)[C@H](CC(=O)O)NC(=O)[C@H](CO)NC(=O)[C@@H](NC(=O)[C@H](Cc1ccccc1)NC(=O)[C@@H](NC(=O)CNC(=O)[C@H](CCC(=O)O)NC(=O)C(C)(C)NC(=O)[C@@H](N)Cc1ccc(O)cc1)[C@@H](C)O)[C@@H](C)O)[C@@H](C)CC)[C@@H](C)CC)C(=O)N[C@@H](CCC(=O)O)C(=O)NCC(=O)NCC(=O)N1CCC[C@H]1C(=O)N[C@@H](CO)C(=O)N[C@@H](CO)C(=O)NCC(N)=O
B8: Example 270 (peptide)
peptide: Y[Aib]EGTFTSDYSILLDKK([AEEA-AEEA-γGlu-C18 diacid])AQ[Aib]EFIEYLIEGGPSSG-NH2
modifications: N-terminus assumed
SMILES: CC[C@H](C)[C@H](NC(=O)[C@H](CC(C)C)NC(=O)[C@H](Cc1ccc(O)cc1)NC(=O)[C@H](CCC(=O)O)NC(=O)[C@@H](NC(=O)[C@H](Cc1ccccc1)NC(=O)[C@H](CCC(=O)O)NC(=O)C(C)(C)NC(=O)[C@H](CCC(N)=O)NC(=O)[C@H](C)NC(=O)[C@H](CCCCNC(=O)COCCOCCNC(=O)COCCOCCNC(=O)CC[C@H](NC(=O)CCCCCCCCCCCCCCCCC(=O)O)C(=O)O)NC(=O)[C@H](CCCCN)NC(=O)[C@H](CC(=O)O)NC(=O)[C@H](CC(C)C)NC(=O)[C@H](CC(C)C)NC(=O)[C@@H](NC(=O)[C@H](CO)NC(=O)[C@H](Cc1ccc(O)cc1)NC(=O)[C@H](CC(=O)O)NC(=O)[C@H](CO)NC(=O)[C@@H](NC(=O)[C@H](Cc1ccccc1)NC(=O)[C@@H](NC(=O)CNC(=O)[C@H](CCC(=O)O)NC(=O)C(C)(C)NC(=O)[C@@H](N)Cc1ccc(O)cc1)[C@@H](C)O)[C@@H](C)O)[C@@H](C)CC)[C@@H](C)CC)C(=O)N[C@@H](CCC(=O)O)C(=O)NCC(=O)NCC(=O)N1CCC[C@H]1C(=O)N[C@@H](CO)C(=O)N[C@@H](CO)C(=O)NCC(N)=O

How the values were obtained:
[1] = target: T1, human GIP receptor; experiment: [125I]-GIP competition SPA, hGIPR membranes
Method: The binding buffer contains 25 mM HEPES, pH 7.4, 2.5 mM CaCl₂, 1 mM MgCl₂, 0.1% (w/v) bacitracin, 0.003% (w/v) TWEEN®-20, and Roche Complete™ Protease Inhibitors without EDTA. […] Plates are sealed and mixed on a plate shaker (setting 6) for 1 minute and read with a PerkinElmer Trilux MicroBeta® scintillation counter after 2.5 to 12 hours of incubation/settling time at room temperature.
(§1) Data are analyzed using four-parameter (curve maximum, curve minimum, IC₅₀, Hill slope) nonlinear regression routines (Genedata Screener, version 12.0.4, Genedata AG, Basal, Switzerland). […] Values for Kᵢ are reported as the geometric mean, with error expressed as the standard error of the mean (SEM) and n is equal to the number of independent replicates (determined in assays performed on different days). Geometric Means are calculated as follows: […]

[2] = target: T3, human GLP-1 receptor (human, UniProt P43220 24-463); experiment: [125I]-GLP-1 competition SPA, hGLP-1R membranes
T3 construct: whole, on cells; also called hGLP-1R; hGLP1R
Method: The binding buffer contains 25 mM HEPES, pH 7.4, 2.5 mM CaCl₂, 1 mM MgCl₂, 0.1% (w/v) bacitracin, 0.003% (w/v) TWEEN®-20, and Roche Complete™ Protease Inhibitors without EDTA.
as §1

[3] = target: T2, human GIP receptor; experiment: SPA, [125I]-GIP displacement, hGIPR membranes
[4] = target: T4, human glucagon receptor (human, UniProt P47871 26-477); experiment: SPA, [125I]-Gcg displacement, hGcgR membranes
T4 construct: whole, on cells; Used as crude membranes of stably transfected HEK293 cells; also called hGcgR; hGLcgR
T4 sequence (P47871 26-477): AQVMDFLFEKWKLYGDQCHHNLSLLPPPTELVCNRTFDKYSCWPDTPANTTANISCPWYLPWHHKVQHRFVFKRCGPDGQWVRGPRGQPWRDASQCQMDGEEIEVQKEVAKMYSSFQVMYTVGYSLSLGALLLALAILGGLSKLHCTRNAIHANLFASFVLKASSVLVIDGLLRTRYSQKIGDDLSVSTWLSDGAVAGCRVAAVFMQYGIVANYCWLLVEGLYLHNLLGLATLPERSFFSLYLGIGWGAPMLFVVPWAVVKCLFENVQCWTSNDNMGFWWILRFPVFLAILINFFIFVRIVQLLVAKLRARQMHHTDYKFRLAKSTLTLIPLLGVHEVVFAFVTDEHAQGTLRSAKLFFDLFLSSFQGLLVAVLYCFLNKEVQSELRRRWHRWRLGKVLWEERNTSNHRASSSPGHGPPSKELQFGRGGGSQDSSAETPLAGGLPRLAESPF

[5] = target: T5, human GLP-1 receptor (human, UniProt P43220 24-463); experiment: SPA, [125I]-GLP-1 displacement, hGLP-1R membranes
T5 construct: whole, on cells; Used as crude membranes of stably transfected HEK293 cells; also called hGLP1R; hGLP-1R

Binder	Ki [1]	Ki [2]	Ki [3]	Ki [4]	Ki [5]
B1	0.0563 nM	10.9 nM			
B2		4.39 nM			
B3	0.0581 nM	7.65 nM			
B4	0.0509 nM	0.812 nM			
B5	0.131 nM	1.04 nM			
B6			0.624 nM	53.4 nM	23.1 nM
B7	0.0814 nM	3.98 nM			
B8	0.117 nM	8.27 nM			
